Test results: paper PMC5662737, “Structural and mechanistic insights into ATRX-dependent and -independent functions of the histone chaperone DAXX” (Nature Communications, 2017)

B1: human DAXX four-helix bundle domain (4HB, residues 50–144) [human] / human ATRX DAXX-binding motif (DBM) peptide, wild type [human] (parent complex)
chain 1: SSSSGGKKCYKLENEKLFEEFLELCKMQTADHPEVVPFLYNRQQRAHSLFLASAEFCNILSRVLSRARSRPAKLYVYINELCTVLKAHSAKKKLN
chain 2: NDPENRIAKKMLLEEIKANLSSDE
B2: human ATRX DAXX-binding motif (DBM) peptide, wild type [human] / human DAXX four-helix bundle domain (4HB, residues 50–144) [human] (parent complex)
chain 1: NDPENRIAKKMLLEEIKANLSSDE
chain 2: B1 chain 1

Variants of: B1
Experiment: ITC

Variant | Kd [µM]
chain 1 SSSSGGKKCYKLENEKLFEEFLELCKMQTADHPEVVPALYNRQQRAHSLFLASAEFCNILSRVLSRARSRPAKLYVYINELCTVLKAHSAKKKLN [chain 1 F38A] | 7.5

Variants of: B2
Experiment: ITC

Variant | Kd [µM]
chain 1 NDPENRIAKKMLLEEAKANLSSDE [chain 1 I16A] | 12.9
